According to PMC4211656:

Test system: CYT-19
Assay: ensemble unwinding (CYT-19 concentration dependence)
Details: kmax 0.86 min-1; functional K1/2 for unwinding; substrate probably -1d,rSA5 = CCCUCdUAAAAA (2'-deoxy at U -1); Ribozyme buffer for complex assembly: 50 mM MOPS pH 7.0, 10 mM MgCl2, 25 C; exact CYT-19/Ded1 assay buffer not in the material

L-16/ScaI group I ribozyme with standard 11-bp P1 (ensemble)
K half: 5.7 µM
